The record followed here is US20230227406.

This data set concerns the target PTEN (substrate in the in vitro ubiquitination reaction) (UniProt P60484).

Sequence of PTEN (substrate in the in vitro ubiquitination reaction) (P60484 whole entry): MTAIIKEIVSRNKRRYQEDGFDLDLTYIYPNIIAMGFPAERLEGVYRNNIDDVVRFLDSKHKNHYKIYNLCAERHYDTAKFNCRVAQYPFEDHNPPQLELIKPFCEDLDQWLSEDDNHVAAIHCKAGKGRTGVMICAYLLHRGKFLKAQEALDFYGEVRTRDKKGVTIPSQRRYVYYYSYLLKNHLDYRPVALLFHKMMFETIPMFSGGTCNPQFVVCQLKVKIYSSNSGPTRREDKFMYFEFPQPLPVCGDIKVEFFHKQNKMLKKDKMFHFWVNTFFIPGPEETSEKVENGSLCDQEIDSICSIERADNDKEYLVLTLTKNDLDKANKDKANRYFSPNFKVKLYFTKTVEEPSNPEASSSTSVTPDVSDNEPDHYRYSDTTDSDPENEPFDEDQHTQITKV

For “WWP1 ligase (recombinant, Ubiquigent #63-0034-025)”, the “in vitro ubiquitination reaction, TMT LC-MS/MS of ubiquitin sites on PTEN” value is “Specific ubiquitin sites on PTEN demonstrate greater occupancy (e.g., K237 and K342) when K27-only ubiquitin is used in the reaction vs wild type ubiquitin”; the “in vitro ubiquitination reaction, western blot using an anti-ubiquitin antibody” value was “in the presence of K27 only ubiquitin, PTEN substrate ubiquitin is preferred. PTEN is readily ubiquitinated with non-chain forming ubiquitin”.
